Patent US20160230205A1 (R P SCHERER TECHNOLOGIES, published 2016)

B1: Streptomyces coelicolor formylglycine-generating enzyme (Sc-FGE), wild-type, with N-terminal hexahistidine tag and TEV protease cleavage site, activated with … (protein)
chain: MAVAAPSPAAAAEPGPAARPRSTRGQVRLPGGEFAMGDAFGEGYPADGETPVHTVRLRPFHIDETAVTNARFAAFVKATGHVTDAERFGSSAVFHLVVAAPDADVLGSAAGAPWWINVRGAHWRRPEGARSDITGRPNHPVVHVSWNDATAYARWAGKRLPTEAEWEYAARGGLAGRRYAWGDELTPGGRWRCNIWQGRFPHVNTAEDGHLSTAPVKSYRPNGHGLWNTAGNVWEWCSDWFSPTYYAESPTVDPHGPGTGAARVLRGGSYLCHDSYCNRYRVAARSSNTPDSSSGNLGFRCANDADLTSGSAAE
B2: Catalytic core of H. sapiens formylglycine-generating enzyme with TEV protease site and C-terminal His6 tag (Hs-cFGE) (protein)
chain: DRSLEANAPGPVPGERQLAHSKMVPIPAGVFTMGTDDPQIKQDGEAPARRVTIDAFYMDAYEVSNTEFEKFVNSTGYLTEVAAAPWWLPVKGANWRHPEGPDSTILHRPDHPVLHVSWNDAVAYCTWAGKRLPTEAEWEYSCRGGLHNRLFPWGNKLQPKGQHYANIWQGEFPVTNTGEDGFQGTAPVDAFPPNGYGLYNIVGNAWEWTSDWWTVHHSVEETLNPKGPPSGKDRVKKGGSYMCHRSYCYRYRCAARSQNTPDSSASNLGFRCAADRLPTMDKGENLYFQGHHHHHH
B3: 14 amino acid FGE substrate peptide ALCTPSRGSLFTGR (peptide)
peptide: ALCTPSRGSLFTGR
notes: Used as substrate for both the Sc and Hs forms of the enzyme; also called Csub

What was measured:
[1] = biological target: T1, 14 amino acid FGE substrate peptide ALCTPSRGSLFTGR
T1 chain: ALCTPSRGSLFTGR

[2] = biological target: T2, Streptomyces coelicolor formylglycine-generating enzyme (Sc-FGE), wild-type, with N-terminal hexahistidine … (Streptomyces coelicolor, UniProt Q9F3C7 1-314); assay: Michaelis-Menten kinetics from discontinuous RP-HPLC activity assay
T2 construct: Made in E. coli BL21(DE3); also called S. coelicolor FGE; not shown: N-terminal hexahistidine tag and TEV protease cleavage site from the pET151-D/TOPO vector
T2 sequence (looked up): B1 chain

Binder	KM [1]	binding result [2]
B1	KM=96 µM	
B2	KM=0.34 µM	
B3		binds
